Measurements published in US10662235B2, “Cysteine engineered fibronectin type III domain binding molecules” (Janssen Biotech, Inc., priority 2016, dated 2020).

B1: ECB5: bispecific P53A1R5-17v2 / P114AR7P94-A3, (GGGGS)4, SEQ ID 54 (protein)
chain: MLPAPKNLVVSEVTEDSARLSWADPHGFYDSFLIQYQESEKVGEAIVLTVPGSERSYDLTGLKPGTEYTVSIYGVHNVYKDTNMRGLPLSAIFTTGGGGSGGGGSGGGGSGGGGSMLPAPKNLVVSRVTEDSARLSWTAPDAAFDSFWIRYFEFLGSGEAIVLTVPGSERSYDLTGLKPGTEYVVNIMGVKGGKISPPLSAIFTT
modifications: bispecific EGFR/cMet binding molecule
B2: P54CR4-31: EGFR-binding FN3 domain, SEQ ID NO: 26 (protein)
chain: LPAPKNLVVSEVTEDSLRLSWTAPDAAFDSFLIQYQESEKVGEAINLTVPGSERSYDLTGLKPGTEYTVSIYGVLGSYVFEHDVMLPLSAEFTT
modifications: EGFR binding FN3 domain

Experiments:
[1] = target: T1, EGFR in NCI-H292 cells (Homo sapiens, UniProt P00533); test: Inhibition of EGFR phosphorylation in NCI-H292 cells; assay type: cell-based; settings: H292 cells (FIG. 7A)
T1 construct: EGF-stimulated phosphorylation of EGFR in the human tumor cell line NCI-H292; host or cells: NCI-H292
Method: Purified EGFR-binding FN3 domains were tested for their ability to inhibit EGF-stimulated phosphorylation of EGFR in A431 cells at a single concentration. EGFR phosphorylation was monitored using the EGFR phospho(Tyr1173) kit (Meso Scale Discovery). Cells were plated at 20,000/well in clear 96-well tissue culture-treated plates (Nunc) in 100 μL/well of RPMI medium (Gibco) containing GlutaMAX™ with 10% fetal bovine serum (FBS) (Gibco) and allowed to attach overnight at 37° C. in a humidified 5% CO2 atmosphere. Culture medium was removed completely and cells were starved overnight in 100 μL/well of medium containing no FBS at 37° C. in a humidified 5% CO2 atmosphere. […] Signals were detected by addition of 150 μL/well of Read Buffer (Meso Scale Discovery) and reading on a SECTOR® Imager 6000 instrument (Meso Scale Discovery) using manufacturer-installed assay-specific default settings. Percent inhibition of the EGF-stimulated positive control signal was calculated for each EGFR-binding FN3 domain.
NCI-H292, NCI-H441, or NCI-H596 cells were plated in 96 well plates in RPMI medium containing 10% FBS. […] Cells were lysed with MSD Lysis Buffer and cell signaling was assessed using appropriate MSD Assay plates, according to manufacturer's instructions, as described above. […]

[2] = target: T2, EGFR in NCI-H596 cells (Homo sapiens, UniProt P00533); test: Inhibition of EGFR phosphorylation in NCI-H596 cells; assay type: cell-based; settings: H596 cells (FIG. 7B)
T2 construct: endogenous in cells; host or cells: NCI-H596
Method: NCI-H292, NCI-H441, or NCI-H596 cells were plated in 96 well plates in RPMI medium containing 10% FBS. 24 hours later, medium was replaced with serum free RPMI. […] Cells were treated for 1 h with the monospecific or bispecific molecules and then stimulated with EGF, HGF, or a combination of EGF and HGF for 15 minutes at 37° C., 5% CO2. Cells were lysed with MSD Lysis Buffer and cell signaling was assessed using appropriate MSD Assay plates, according to manufacturer's instructions, as described above.

[3] = target: T3, EGFR on A431 cells (Homo sapiens, UniProt P00533); test: A431 cell binding assay; settings: purified FN3 domains
T3 construct: A431 cells (American Type Culture Collection, cat. # CRL-1555) over-express EGFR; host or cells: A431
Method: To assess the ability of different FN3 domains to bind EGFR in a more physiological context, their ability to bind A431 cells was measured. A431 cells (American Type Culture Collection, cat. # CRL-1555) over-express EGFR with ˜2×10^6 receptors per cell. Cells were plated at 5,000/well in opaque black 96-well plates and allowed to attach overnight at 37° C., in a humidified 5% CO2 atmosphere. FN3 domain-expressing bacterial lysates were diluted 1,000-fold into FACS stain buffer (Becton Dickinson) and incubated for 1 hour at room temperature in triplicate plates. Lysates were removed and cells were washed 3 times with 150 μL/well of FACS stain buffer. Cells were incubated with 50 μL/well of anti-penta His-Alexa488 antibody conjugate (Qiagen) diluted 1:100 in FACS stain buffer for 20 minutes at room temperature. Cells were washed 3 times with 150 μL/well of FACS stain buffer, after which wells were filled with 100 μL of FACS stain buffer and read for fluorescence at 488 nm using an Acumen eX3 reader. […]
A431 cells were plated at 5,000/well in opaque black 96-well plates and allowed to attach overnight at 37° C., in a humidified 5% CO2 atmosphere. […] Cells were washed 3 times with 150 μL/well of FACS stain buffer, after which wells were filled with 100 μL of FACS stain buffer and read for fluorescence at 488 nm using an Acumen eX3 reader. […]

Molecule	inhibition of phosphorylation of EGFR, bispecific vs monospecific [1]	inhibition of phosphorylation of EGFR, bispecific vs monospecific [2]	EC50 [3] [µM]
B1	comparable	comparable	–
B2	–	–	> 20
